From US20250011363A1, “OPTIMIZED SHORTENED PEPTIDE THAT BINDS TO ACETYLCHOLINE RECEPTOR, AND USE THEREOF” (SKINMED CO., LTD., priority 2021, published 2025)

Target: acetylcholine receptor
Assay: SPR, receptor on CM5 chip, peptide 10 µM

Binder | Binding affinity (RU)
KKVLSK [6mer-1-473] | 154 RU
KRVQQK [6mer-1-124] | 137 RU
RKVYRR [6mer-1-511] | 136 RU
RRGVQK [6mer-1-123] | 148 RU
KRWLYR [6mer-1-101] | 142 RU
KRVLYK [6mer-1-501] | 154 RU
RKLQLR [6mer-1-118] | 127 RU
KRRYTK [6mer-1-121] | 148 RU
RRWYRR [6mer-1-485] | 126 RU
RRVYQR [6mer-1-496] | 148 RU
RKLRLR [6mer-1-491] | 137 RU
KKLFRR [6mer-1-490] | 133 RU
KKLIYR [6mer-1-469] | 139 RU
KKVITK [6mer-1-489] | 148 RU
RRQFSK [6mer-1-508] | 135 RU
KRRRQK [6mer-1-476] | 154 RU
KKLYLR [6mer-1-484] | 154 RU
KRRLCK [6mer-1-503] | 151 RU
KRGIQR [6mer-1-131] | 142 RU
RRRQSK [6mer-1-129] | 121 RU
KRRQSR [6mer-1-510] | 122 RU
RRWRQK [6mer-1-492] | 139 RU
RRRFTR [6mer-1-505] | 148 RU
RRRYRR [6mer-1-102] | 127 RU
RKRQQK [6mer-1-498] | 139 RU
KKWVCR [6mer-1-112] | 148 RU
RRSITR [6mer-1-504] | 122 RU

Binder | Binding affinity (RU)
KKWVYR [6mer-1-470] | 148 RU
KKQFYK [6mer-1-480] | 121 RU
RKGFQR [6mer-1-495] | 126 RU
RRLYRR [6mer-1-468] | 153 RU
RKQFYR [6mer-1-128] | 126 RU
RKVRCK [6mer-1-116] | 139 RU
RRQVYR [6mer-1-132] | 153 RU
RRRYSR [6mer-1-120] | 124 RU
RRSLSR [6mer-1-115] | 133 RU
KRQVTK [6mer-1-483] | 151 RU
KKWYSK [6mer-1-488] | 135 RU
RRSQSK [6mer-1-507] | 139 RU
KRQLLK [6mer-1-110] | 121 RU
KRLFSK [6mer-1-474] | 121 RU
KRRLCR [6mer-1-125] | 135 RU
KKSISK [6mer-1-105] | 141 RU
KRLFTR [6mer-1-117] | 142 RU
KRGFSK [6mer-1-104] | 121 RU
RKVICR [6mer-1-111] | 144 RU
RRLLLR [6mer-1-108] | 139 RU
KKLIRK [6mer-1-122] | 139 RU
RKLQTK [6mer-1-475] | 148 RU
RKRICK [6mer-1-103] | 122 RU
KRQVRK [6mer-1-486] | 151 RU
KRRQLR [6mer-1-497] | 133 RU
RKWLRK [6mer-1-509] | 128 RU
KRQQTK [6mer-1-477] | 145 RU

Binder | Binding affinity (RU)
KRWRCK [6mer-1-481] | 133 RU
KRGVQK [6mer-1-113] | 148 RU
KRGQLK [6mer-1-106] | 149 RU
KRVIYR [6mer-1-127] | 147 RU
RRQITK [6mer-1-114] | 153 RU
KKLFSR [6mer-1-494] | 128 RU
KRQVSR [6mer-1-135] | 123 RU
KKSIYR [6mer-1-134] | 128 RU
RKRFLR [6mer-1-133] | 154 RU
RKQVLR [6mer-1-130] | 142 RU
KKRYLR [6mer-1-109] | 148 RU
KKQRSR [6mer-1-107] | 131 RU
KKWRCK [6mer-1-471] | 123 RU
KKWIQR [6mer-1-126] | 148 RU
KRLQTR [6mer-1-119] | 133 RU
RRSLTR [6mer-1-479] | 135 RU
RRRLSK [6mer-1-506] | 151 RU
RKGRRK [6mer-1-487] | 121 RU
RKQVRK [6mer-1-482] | 133 RU
RKVRYK [6mer-1-478] | 139 RU
RKLFYR [6mer-1-499] | 149 RU
KRQRCK [6mer-1-472] | 142 RU
KRGYLR [6mer-1-493] | 131 RU
RKLFSR [6mer-1-502] | 146 RU
RKLQSK [6mer-1-500] | 151 RU
